We go through 72 sequences from the supplement of paper PMC10567573.

± gives the standard deviation.

A short description of the series: protein stability index of a GFP-peptide fusion (GPS, HEK-293T) (PSI 1-6); higher = more stable. The settings on record: c terminus: a fixed tail appended.
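Further: 24-mer peptide tiles fused after GFP, lentivirally expressed, FACS-sorted into six equal bins by GFP/DsRed ratio, decoded by Illumina sequencing, PSI is the read-weighted mean bin number.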

Take ILVSVAAGVSLSTLEELLPPNTRV [PYCR3]: the protein stability index is, setting by setting: (treatment: DMSO) 2.77 ± 0.49; (treatment: MLN4924 1 uM, 8 h) 2.62 ± 0.54.
PNCLSMGSRCLKTFEVPEENTAET [ZBED1] showed a protein stability index (treatment: DMSO) of 4.89 ± 0.39 and a protein stability index (treatment: MLN4924 1 uM, 8 h) of 4.93 ± 0.15.
The matching figures for RGSVARPTQGPETPRSPEGTTEAA [PXN]: 5.39 ± 0.3 and 5.31 ± 0.17.
The like results for YGSGDTPGGPCDSTLGGDIRESDP [TBX6] were, in that order, 5.25 ± 0.31 and 5.27 ± 0.61.
Sequence FSVRPGTEATISIREDEVHRLGSP [SCNN1D] displayed a protein stability index (treatment: DMSO) of 4.16 ± 0.16 and a protein stability index (treatment: MLN4924 1 uM, 8 h) of 4.2 ± 0.12.
The like results for LELLSAPELKSLAKTFHLVNPNGQ [FAN1] were, in that order, 2.74 ± 0.13 and 2.84 ± 0.095.
The like results for VCRIGDWLQERYEIVGNLGEGTFG [CLK3] were, in that order, 2.22 ± 0.42 and 2.37 ± 0.33.
The matching figures for KELRDGGEQDTWAGEGAEALARNL [NFE2L1]: 5.26 ± 0.25 and 5.36 ± 0.27.
Regarding GKNWSKLCKDCQVIDGRNVTVTDV [TPPP], the protein stability index reads like this: (treatment: DMSO) 3.67 ± 0.14; (treatment: MLN4924 1 uM, 8 h) 3.92 ± 0.23.
The matching figures for ACTMDQARGLDDAAARGGQCPGLG [ZBED3]: 4.54 ± 0.18 and 4.51 ± 0.14.
The matching figures for RDPPRPGPSRPAEKPPRPEAKSAQ [GCH1]: 5.33 ± 0.35 and 5.1 ± 0.045.
The like results for TLLNPRMIVDVTPYMNPSPFTVSP [CLCN6] were, in that order, 2.32 ± 0.079 and 2.25 ± 0.081.
The sequence FTGRDSITCLTCQGTGYIPTEQVN [TMEM106C] came in with a protein stability index (treatment: DMSO) of 2.66 ± 0.57 and a protein stability index (treatment: MLN4924 1 uM, 8 h) of 3.31 ± 0.65.
The like results for PGKETLESALIALDSEKPKKLRFH [EHMT1] were, in that order, 4.06 ± 0.24 and 4.11 ± 0.45.
The like results for LLNAASTVARPVFTEYQASAFGNV [RHOBTB3] were, in that order, 2.48 ± 0.21 and 2.72 ± 0.31.
The matching figures for QGCPGAKKHEFLTSVLDALSTDMV [SMOC2]: 2.68 ± 0.26 and 3.07 ± 0.27.
For the sequence LAPVPTHSTVSELSRSPVATATSC [DUSP5], the protein stability index was 4.24 ± 0.3 (treatment: DMSO) and 4.17 ± 0.15 (treatment: MLN4924 1 uM, 8 h).
Consider PITRKAAQLYTLWVTFQVLLYTSL [DHCR7], for which the protein stability index stood at 3.07 ± 0.22 (treatment: DMSO) and 2.56 ± 0.51 (treatment: MLN4924 1 uM, 8 h).
The matching figures for AKAPPTACYAGAAPAPSQVKSKAK [CEBPB]: 5.36 ± 0.19 and 5.21 ± 0.2.
The like results for MAPDPVAAETAAQGPTPRYFTWDE [FADS1] were, in that order, 4.7 ± 0.17 and 4.83 ± 0.27.
The matching figures for ELPLLTPCSKAVMSQALKATFSGF [ETS2]: 2.62 ± 0.28 and 2.06 ± 0.65.
In the case of VKMDSSIQPGPFRAVLKYLYTGEL [RHOBTB2], the protein stability index runs as follows: (treatment: DMSO) 2.32 ± 0.96; (treatment: MLN4924 1 uM, 8 h) 2.02 ± 0.45.
Consider TQKFTDMVATANNRQTFVNSAIRF [CHIT1], for which the protein stability index (treatment: DMSO) was 2.85 ± 0.32 and the protein stability index (treatment: MLN4924 1 uM, 8 h) was determined as 3.17 ± 0.33.
The like results for LQNEVPPQPDPVFLEALSSRYLGD [SERTAD3] were, in that order, 4.32 ± 0.15 and 4.25 ± 0.14.
Take GGWNFSTQKFTDMVATANNRQTFV [CHIT1]: the protein stability index reads like this: (treatment: DMSO) 2.55 ± 0.29; (treatment: MLN4924 1 uM, 8 h) 2.81 ± 0.31.
As to VTKVTAVDADAGHNAWLSYSLLPQ [PCDHGC5], the protein stability index runs as follows: (treatment: DMSO) 2.41 ± 0.39; (treatment: MLN4924 1 uM, 8 h) 2.29 ± 0.21.
The matching figures for AGEREDLWAGSKGKEFGYFPRDAV [MIA2]: 3.47 ± 0.15 and 3.86 ± 0.51.
The like results for AGPGAPEPLAEGAAAEFSSLLRRI [SLC35F2] were, in that order, 3.9 ± 0.32 and 3.77 ± 0.46.
The like results for IILTATDGLFDNMPDYMILQELKK [PPTC7] were, in that order, 2.31 ± 0.32 and 2.22 ± 0.19.
Consider KEEKQRRRCKPKKPTRRDASPESP [GNAS], for which the protein stability index turned out to be 5.43 ± 0.18 (treatment: DMSO) and 5.47 ± 0.11 (treatment: MLN4924 1 uM, 8 h).
The matching figures for TVAIGAESEVYSWGKGARGRLGRR [NEK8]: 4.08 ± 0.16 and 4.14 ± 0.15.
The like results for DAASLRRQIIKLNRRLQLLEEENK [MFF] were, in that order, 3.35 ± 0.19 and 3.68 ± 0.55.
On to VCSDYASGYHYGVWSCEGCKAFFK [ESR2], for which the protein stability index is 2.33 ± 0.35 (treatment: DMSO) and 2.56 ± 0.34 (treatment: MLN4924 1 uM, 8 h).
As to VEEQLAQLRCEMEQQNQEYKILLD [KRT17], the protein stability index is, setting by setting: (treatment: DMSO) 4.75 ± 0.29; (treatment: MLN4924 1 uM, 8 h) 4.78 ± 0.22.
The matching figures for TASTAPPVPATAPSPAPAVAAAAA [SNAP91]: 5.09 ± 0.19 and 5.08 ± 0.12.
The matching figures for SLGVPGSVGGVPGGTGSGDGNKIF [ZBTB22]: 4.38 ± 0.26 and 4.3 ± 0.22.
The like results for SALPFITYLENKGHRYPCFFNTLH [POP5] were, in that order, 2.34 ± 0.46 and 2.19 ± 0.42.
In the case of DIYILPSDNSGQVSPPESPTVTTS [BCL2L13], the protein stability index runs as follows: (treatment: DMSO) 4.58 ± 0.27; (treatment: MLN4924 1 uM, 8 h) 4.5 ± 0.15.
The like results for EPDALDDSLTSLQWLQEFSILNAK [FOXJ1] were, in that order, 3.75 ± 0.21 and 3.65 ± 0.11.
The like results for PLGGGVGGQDGLGAPKDQQQPPQQ [KLHL14] were, in that order, 5.31 ± 0.39 and 5.33 ± 0.26.
With TSASFGEESTPGQTNSETAVVALT [HDAC6], the protein stability index turned out to be 4.714 ± 0.027 (treatment: DMSO) and 5.05 ± 0.19 (treatment: MLN4924 1 uM, 8 h).
The matching figures for TSLLDLISIPITGDTLRTFSLVLV [DYNC2LI1]: 2.76 ± 0.89 and 2.51 ± 0.57.
The like results for EPMRDQVARTHLTEDTPKVNADIE [NSDHL] were, in that order, 5.32 ± 0.34 and 5.56 ± 0.075.
The matching figures for NDRVQTIITQLEDSRRVTKENSHQ [TRIM63]: 4.99 ± 0.23 and 4.92 ± 0.13.
The sequence LKNHFQSVLEQLELQEKQKNEKLI [TAF7L] gave a protein stability index (treatment: DMSO) of 2.82 ± 0.12 and a protein stability index (treatment: MLN4924 1 uM, 8 h) of 2.95 ± 0.22.
The matching figures for TKLLNDEDQVVVNKAAVMVHQLSK [CTNNB1]: 3.6 ± 0.19 and 3.57 ± 0.4.
The like results for LLGLGVLLFSGGLSESETGPMEEV [PBXIP1] were, in that order, 2.22 ± 0.062 and 2.32 ± 0.31.
The matching figures for ELEMIGFIENNVSKLSLLLNDISR [TRIP13]: 2.2 ± 0.31 and 2.63 ± 0.41.
Regarding RAGEQRKRSQSMKSYPSSELRNMC [CLCN6], the protein stability index reads like this: (treatment: DMSO) 4.29 ± 0.078; (treatment: MLN4924 1 uM, 8 h) 4.37 ± 0.21.
For WIQFNHPYTEKPRLWHTACASDEG [KLHDC2], the protein stability index was found to be 2.28 ± 0.31 (treatment: DMSO) and 2.4 ± 0.13 (treatment: MLN4924 1 uM, 8 h).
The like results for TWLKGKFTELRLLLDEEEALAKKF [TRIM14] were, in that order, 2.23 ± 0.42 and 2.34 ± 0.23.
The like results for HKKDCAREKPFKCQECGKTFRVSS [ZNF75A] were, in that order, 3.45 ± 0.38 and 3.65 ± 0.41.
The like results for EKDNSRRMLTDKEREMAEIRDQMQ [LMNB1] were, in that order, 5.3 ± 0.12 and 5.32 ± 0.13.
VRILLEHYYKENDPSVRLKIASLL [INTS4] registered a protein stability index (treatment: DMSO) of 2.09 ± 0.33 and a protein stability index (treatment: MLN4924 1 uM, 8 h) of 2.41 ± 0.4.
The like results for SPIKLSPTSPVYRGSSSGPSSPAR [MTUS2] were, in that order, 4.34 ± 0.21 and 4.39 ± 0.2.
The matching figures for KRYESHPVCADLQAKILQCYRENT [CHCHD3]: 3.18 ± 0.23 and 3.55 ± 0.26.
Turning to ALEQREQDAVDQVKVIMDALDERA [TRIM29], the protein stability index runs as follows: (treatment: DMSO) 5.33 ± 0.097; (treatment: MLN4924 1 uM, 8 h) 5.31 ± 0.29.
Take EQIRFVMKAHSFVRENVPRVLNSA [SOAT1]: the protein stability index (treatment: DMSO) worked out at 2.58 ± 0.46 and the protein stability index (treatment: MLN4924 1 uM, 8 h) turned out to be 2.48 ± 0.41.
The matching figures for RNGGSLADAISENYRIMSYFKEAE [WEE1]: 3.08 ± 0.36 and 3.2 ± 0.28.
The like results for LLSQEKLQEQHLSSPQGVQLDIAS [BCL2L13] were, in that order, 4.45 ± 0.14 and 4.36 ± 0.15.
On to RHTLQKLTCEFNNNHESLDEELHL [FBXO39], for which the protein stability index reads like this: (treatment: DMSO) 4.38 ± 0.21; (treatment: MLN4924 1 uM, 8 h) 4.56 ± 0.3.
TRDYAPPSRGHAYRDYGHSRRDES [RBMY1A1]: the protein stability index was 4.54 ± 0.4 (treatment: DMSO) and 4.61 ± 0.42 (treatment: MLN4924 1 uM, 8 h).
The matching figures for IAVRKSRDKAKMRNLETQHKVLEL [CEBPB]: 3.14 ± 0.36 and 3.54 ± 0.12.
LDPDTMHARLRLSADRLTVRCGLL [TRIM14]: the protein stability index runs as follows: (treatment: DMSO) 2.51 ± 0.16; (treatment: MLN4924 1 uM, 8 h) 2.48 ± 0.25.
The matching figures for SPSYGRSRSRSRSRSRSRSRSNSR [SRSF1]: 5.39 ± 0.47 and 5.43 ± 0.26.
Sequence FHPIKETVVEEPVDITPYLDQLDE [INTS3] displayed a protein stability index (treatment: DMSO) of 3.98 ± 0.67 and a protein stability index (treatment: MLN4924 1 uM, 8 h) of 4.5 ± 0.44.
In the case of TSIVQAAAGGVPGGGSNNGKTPVC [PDLIM7], the protein stability index runs as follows: (treatment: DMSO) 4.63 ± 0.17; (treatment: MLN4924 1 uM, 8 h) 4.81 ± 0.14.
The matching figures for VCVIAIGVVQALIVGYAFHFPHLL [TMEM175]: 3.11 ± 0.62 and 3.09 ± 0.4.
The like results for PRCKTTKYRNPSLKLMVNVCGHTL [MNAT1] were, in that order, 2.39 ± 0.18 and 2.31 ± 0.23.
The like results for LRHSFQKQQREKTRWLNSGRGDEA [ADD1] were, in that order, 3.63 ± 0.5 and 3.92 ± 0.35.
With RLSGLSSVGHNWRKRMGTRRGRHE [C22orf15], the protein stability index reads like this: (treatment: DMSO) 4.08 ± 0.23; (treatment: MLN4924 1 uM, 8 h) 4.14 ± 0.19.
The matching figures for SHAAPGPSPDSWVPRPGTPQSPPS [FCHO1]: 5.12 ± 0.47 and 5.05 ± 0.62.
